{
  "source": "patent US20160367515A1",
  "about": "“Improved delivery of poorly water soluble drugs with aphafetoprotein stabilized with metal ions” (Oy Safemed Ltd., priority 2013, published 2016)",
  "molecules": {"B1": {"name": "Zn-rhAFP: complex of rhAFP with Zn ions, prepared with 4-fold molar excess of ZnCl2 followed by dialysis (protein, UniProt P02771 19-609, looked up)", "Alpha-fetoprotein": "RTLHRNEYGIASILDSYQCTAEISLADLATIFFAQFVQEATYKEVSKMVKDALTAIEKPTGDEQSSGCLENQLPAFLEELCHEKEILEKYGHSDCCSQSEEGRHNCFLAHKKPTPASIPLFQVPEPVTSCEAYEEDRETFMNKFIYEIARRHPFLYAPTILLWAARYDKIIPSCCKAENAVECFQTKAATVTKELRESSLLNQHACAVMKNFGTRTFQAITVTKLSQKFTKVNFTEIQKLVLDVAHVHEHCCRGDVLDCLQDGEKIMSYICSQQDTLSNKITECCKLTTLERGQCIIHAENDEKPEGLSPNLNRFLGDRDFNQFSSGEKNIFLASFVHEYSRRHPQLAVSVILRVAKGYQELLEKCFQTENPLECQDKGEEELQKYIQESQALAKRSCGLFQKLGEYYLQNAFLVAYTKKAPQLTSSELMAITRKMAATAATCCQLSEDKLLACGEGAADIIIGHLCIRHEMTPVNPGVGQCCTSSYANRRPCFSSLVVDETYVPPAFSDDKFIFHKDLCQAQGVALQTMKQEFLINLVKQKPQITEEQLEAVIADFSGLLEKCCQGQEQEVCFAEEGQKLISKTRAALGV", "modifications": "zinc ion complex"}, "B2": {"name": "rhAFP: glycosylated wild-type recombinant human alpha-fetoprotein secreted by yeast Saccharomyces cerevisiae (protein, UniProt P02771 19-609, looked up)", "Alpha-fetoprotein": "B1 Alpha-fetoprotein", "modifications": "expressed in yeast", "notes": "glycosylated wild-type recombinant human alpha-fetoprotein secreted by yeast Saccharomyces cerevisiae"}, "B3": {"name": "eAFP: fetal serum human AFP isolated from human cord serum (protein, UniProt P02771 19-609, looked up)", "Alpha-fetoprotein": "B1 Alpha-fetoprotein"}},
  "data": [
    {"system": "not listed separately", "test": "Adiabatic scanning microcalorimetry of heat denaturation", "format": "physicochemical", "settings": "protein 2.0 mg/ml in PBS pH 7.4", "units": {"ΔT1/2 (half width of the denaturation transition peak)": "°C"}, "values": [
      {"molecule": "B1", "ΔT1/2 (half width of the denaturation transition peak)": 5.9},
      {"molecule": "B2", "ΔT1/2 (half width of the denaturation transition peak)": 7.0},
      {"molecule": "B3", "ΔT1/2 (half width of the denaturation transition peak)": 5.8}
    ]},
    {"system": "not listed separately", "test": "Adiabatic scanning microcalorimetry of heat denaturation", "format": "physicochemical", "settings": "protein 2.0 mg/ml in PBS pH 7.4; Zn/rhAFP 4/1, Ptx/rhAFP 1/1, Cur/rhAFP 1:1; error about ±6%", "units": {"ΔH (denaturation enthalpy)": "kcal/mol"}, "values": [
      {"molecule": "B1", "ΔH (denaturation enthalpy)": 171},
      {"molecule": "B2", "ΔH (denaturation enthalpy)": 166},
      {"molecule": "B3", "ΔH (denaturation enthalpy)": 189}
    ]},
    {"system": "not listed separately", "test": "Adiabatic scanning microcalorimetry of heat denaturation", "format": "physicochemical", "settings": "protein 2.0 mg/ml in PBS pH 7.4; error ±0.5° C.", "units": {"Tmax (denaturation transition temperature)": "°C"}, "values": [
      {"molecule": "B1", "Tmax (denaturation transition temperature)": 74.3},
      {"molecule": "B2", "Tmax (denaturation transition temperature)": 71.9},
      {"molecule": "B3", "Tmax (denaturation transition temperature)": 80.2}
    ]},
    {"system": "NF-κB p65", "test": "Immunofluorescence of activated NF-κB p65 nuclear translocation in MCF-7 cells", "format": "cell-based, human", "settings": "MCF-7, 2 h treatment", "protocol": "The cells were incubated with paclitaxel (10 μM) with addition of Zn-rhAFP (3.0 μM) and/or curcumin (3.0 μM) for 2 h and then assessed for localization of p65 by immunocytochemistry. Activated […] (p65) was detected by treatment of the cells with phospho […] p65 rabbit polyclonal antibody (Cell signaling technologies, USA) followed by secondary goat anti-rabbit Ab-Alexa594 red (Molecular Probes, USA). Cells were visualized at magnification ×400 by fluorescent microscope Axioplan; Zeiss (Germany) equipped with corresponding color filter kits.\nThe relative amount of p65 in the cytosol and nucleus of the cells was assessed by ImageJ software and was taken as 100% in the control (cytosol+nucleus). Total amount of activated p65 in control untreated cells was taken as 100%. The experimental data are represented as percentage of control±SD from three independent calculations in various observation fields.\nMCF-7 cells were seeded on the microscopic plates Lab-Tek™ Chamber Slides (Thermo Fisher Scientific-Nunc, Germany) and cultivated at 37° C. at 5% CO2 atmosphere for 48 h to allow cell adaptation to reach 80% confluence. To test effects of chemotherapeutic preparations on the activation and translocation of NF-κB, cells were treated for 2 h with Ptx (10 nM), curcumin (30 μM); Zn-rhAFP (1.4 μM), or their combination Zn-rhAFP/Ptx/Cur, after which they were fixed with 100% ice-cold acetone. Control cells were incubated without additions and their NF-κB content was taken as 100%. Activated NF-κB was detected by treatment of the cells with phospho NF-κB p65 rabbit polyclonal antibody (Cell signaling technologies, USA) followed by the secondary goat anti-rabbit antibodies Ab-Alexa594 (Molecular Probes, USA). Nuclei were visualized by staining with DAPI (Molecular probes, USA). Cells were visualized at magnification ×400 by fluorescent microscope Axioplan (Zeiss, Germany) equipped with corresponding color filter kits. Distribution throughout the cell of the activated p65 was assessed by the ImageJ software and was taken as 100% in the control samples (cytosol+nucleus).", "values": [
      {"molecule": "COc1cc(/C=C/C(=O)CC(=O)/C=C/c2ccc(O)c(OC)c2)ccc1O", "note": "[Curcumin, curcumin]", "effect on activated p65 (RelA) in the cell nucleus": "significant decrease of activated RelA in the cell nucleus"},
      {"molecule": "B1", "effect on activated p65 (RelA) in the cell nucleus": "significant decrease of activated RelA in the cell nucleus"}
    ]},
    {"system": "normal CBA mice splenocytes", "test": "Unspecific toxicity against normal splenocytes, trypan blue staining", "settings": "48 h, standalone protein", "method": "Zn-rhAFP was prepared in a molecular ratio Zn:rhAFP=4:1. Viable cells were visualized by trypan blue staining. The data are expressed as percentage of viable cells in experimental cell cultures relative to untreated control. Mean of three independent experiments is shown.\nViable cells were visualized by trypan blue staining.", "values": [
      {"molecule": "B1", "dose-dependent stimulation of growth of the normal splenocytes": "40 % of control"},
      {"molecule": "B2", "dose-dependent stimulation of growth of the normal splenocytes": "40 % of control"}
    ]},
    {"system": "mammary carcinoma cell line MCF-7", "test": "MTS cell viability assay, mammary carcinoma MCF-7 cells", "format": "cell-based, human", "settings": "Example 3, MCF-7, 48 h, protein without drug, read-out: IC50, tumor suppressive effect of AFP species standalone", "protocol": "(§1) Effect of binding of Zn ions to rhAFP and sugar-free rhAFPo species was tested by measuring of their dose-dependent tumor-suppressive effect for mammary carcinoma cell line MCF-7 in vitro, as it was earlier described for natural embryonic eAFP (Dudich et al., Eur. J. Biochem. 1999; 266: 750-761). MCF-7 cells were incubated with various doses of rhAFP (rhAFPo), Zn-rhAFP (Zn-rhAFPo) or with natural embryonic eAFP for 48 h, and thereafter their viability was assessed by the colorimetric MTS assay (FIG. 1A).\n(§2) Cell viability was assessed by the Promega CellTiter 96 AQueous Non-Radioactive Cell Proliferation MTS assay (Promega, USA) according to manufacturer's instructions. Cells were incubated with various AFP samples for 48 h as described above, followed by incubation with MTS-test reagents and measuring of the light adsorption of the formasan, appeared in the lysed cell supernatants at 492 nm by using VICTOR-1420 multilabel counter (Wallac, Finland). Intact cell cultures incubated without additions were taken as a control. By such a way the quantity of viable cells capable to internalize MTS dye was determined. Results were expressed as the mean optical density (OD)±the standard error of the mean triplicate cultures. The extent of cell viability was calculated as an average OD in experimental wells after addition of testing compounds in relation to untreated control wells, that was taken as 100%\n(§3) To evaluate the efficacy of preparations rhAFP/Ptx and Zn-rhAFP/Ptx we compared the cytotoxic effect of Ptx alone or that in combination with rhAFP or Zn-rhAFP for taxol-resistant human hepatoma HepG2 cells, human breast carcinoma cells MCF-7, and rat glioma C6 cell lines in vitro. RhAFP or Zn-rhAFP were incubated with various doses of Ptx at 37° C. for 1 h to allow complex formation with molecular ratios rhAFP:Ptx 1:1; 1:3 or 1:5 and thereafter the mixtures were introduced into the cell culture for 48 hrs. Cytotoxicity was measured by MTS assay.\n(§4) Various doses of rhAFP/Ptx complexes were tested for their effectiveness for inhibition of human mammary carcinoma MCF-7, human hepatoma HepG2, and rat glioma C6 tumor cell growth in vitro. First, we optimized drug concentration and rhAFP amount to the extent that it would not generate an extensive cytotoxic effect alone. Then, the cells were seeded in 96-well plates at a density of 3×10^3/well in 100 μl of medium for 24 hrs to allow adherence. The next day, rhAFP or Zn-rhAFP combined with Ptx at the molecular ratios of 1:1; 1:3 or 1:5 were added into the each well. After 48 h of incubation MTS assays were performed to determine survival rate of the cells. All the experiments were repeated at least three times. The results were expressed as mean±standard error (SE).\n(§5) The coefficient of drug interaction (CDI) was calculated to analyze the effects of rhAFP and Ptx combinations. CDI was calculated by the equation: CDI=SRAFP/drug[…]/SRAFP×SRdrug, where SRAFP/drug is the average survival rate of combination group, and SRAFP or SRdrug are the average survival rates of the single agent groups. According to our evaluation, CDI values <1, =1 or >1 indicate that the combinations are synergistic, additive or antagonistic respectively.\n(§6) The values of Zn-rhAFP/Ptx or rhAFP/Ptx complex concentration, which inhibited the cell viability by 50% (IC50) when compared to untreated control, were calculated according to the Hill's equation (sigmoid model of concentration-response curve) from the curves of dependence of the relative percentage of viable cells from AFP concentration expressed as mean values from three independent experiments±SD.\n(§7) In order to confirm the hypothesis that the combination of Zn-rhAFP and various low water-soluble chemotherapeutic agents would reveal increased anti-tumor efficacy, different cytotoxic compounds were tested in combination with Zn-rhAFP for their cell-killing effect in MCF-7 cells in vitro. […]", "units": {"IC50": "µM"}, "values": [
      {"molecule": "B1", "IC50": 2.5},
      {"molecule": "B2", "IC50": 3.5},
      {"molecule": "B3", "IC50": 3}
    ]},
    {"system": "mammary carcinoma cell line MCF-7", "test": "MTS cell viability assay, mammary carcinoma MCF-7 cells", "format": "cell-based, human", "settings": "Example 6, MCF-7, 48 h, protein without Ptx, read-out: cytostatic activity (IC50) standalone against MCF-7 cells", "protocol": "as §1, §2, §3, §4, §5, §6, §7", "units": {"IC50": "µM"}, "values": [
      {"molecule": "B1", "IC50": 5.2},
      {"molecule": "B2", "IC50": 6.1}
    ]},
    {"system": "mammary carcinoma cell line MCF-7", "test": "MTS cell viability assay, mammary carcinoma MCF-7 cells", "format": "cell-based, human", "settings": "MCF7 + Zn-rhAFP 1.4 μM (Zn:rhAFP 4:1) + drug, 48 h", "protocol": "as §1, §2, §3, §4, §5, §6, §7", "values": [
      {"molecule": "COc1cc([C@@H]2c3cc4c(cc3[C@@H](O[C@@H]3O[C@@H]5CO[C@@H](C)O[C@H]5[C@H](O)[C@H]3O)[C@H]3COC(=O)[C@H]23)OCO4)cc(OC)c1O", "note": "[Etoposide, etoposide]", "Coefficient for drug interaction (CDI)": 0.86},
      {"molecule": "COc1cccc2c1C(=O)c1c(O)c3c(c(O)c1C2=O)C[C@@](O)(C(=O)CO)C[C@@H]3O[C@H]1C[C@H](N)[C@H](O)[C@H](C)O1", "note": "[Doxorubicin, doxorubicin]", "Coefficient for drug interaction (CDI)": 0.66},
      {"molecule": "COc1cc(/C=C/C(=O)CC(=O)/C=C/c2ccc(O)c(OC)c2)ccc1O", "note": "[Curcumin, curcumin]", "Coefficient for drug interaction (CDI)": 0.88},
      {"molecule": "N.N.[Cl][Pt][Cl]", "note": "[Cisplatin, cisplatin]", "Coefficient for drug interaction (CDI)": 0.93},
      {"molecule": "CC(C)=CCC/C(C)=C/C=C/C(C)=C/C=C/C(C)=C/C=C/C=C(C)/C=C/C=C(C)/C=C/C=C(\\C)CCC=C(C)C", "note": "[Lycopene, lycopene]", "Coefficient for drug interaction (CDI)": 0.71},
      {"molecule": "Oc1ccc(C=Cc2cc(O)cc(O)c2)cc1", "note": "[Resveratrol, resveratrol]", "Coefficient for drug interaction (CDI)": 0.72},
      {"molecule": "O=c1c(-c2ccc(O)cc2)coc2cc(O)cc(O)c12", "note": "[Genistein, genistein]", "Coefficient for drug interaction (CDI)": 0.82}
    ]}
  ]
}
